In patent publication US20170247448A1 (INTRINSIC LIFESCIENCES, published 2017):

Key:
Experiment in all cases: C-ELISA: goat anti-human Fc coated plate, antibody captured (30 ng/well per title of FIG. 20D), unlabelled hepcidin titrated (ng/well per axis of FIG. 20D) against a labelled tracer not named for this figure; OD = tracer left on the antibody
BAP070-hum01 = target: T1, BAP070-hum01
T1 construct: Expressed as soluble IgG1 in CHO cells, tested as supernatant; The entries stop inside FR4 (...WGQG / ...FG); also called humanized hit 1
T1 sequence (VH, as listed by the source, chain 1 of 2): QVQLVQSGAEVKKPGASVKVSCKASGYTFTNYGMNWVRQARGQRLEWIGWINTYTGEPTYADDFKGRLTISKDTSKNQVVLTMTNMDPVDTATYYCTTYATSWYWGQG
T1 sequence (VL, as listed by the source, chain 2 of 2): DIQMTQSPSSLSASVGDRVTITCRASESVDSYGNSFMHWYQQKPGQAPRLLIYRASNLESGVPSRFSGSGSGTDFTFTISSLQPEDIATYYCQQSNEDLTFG

BAP070-hum03 = target: T2, BAP070-hum03
T2 construct: Expressed as soluble IgG1 in CHO cells, tested as supernatant; The entries stop inside FR4
T2 sequence (VH, as listed by the source, chain 1 of 2): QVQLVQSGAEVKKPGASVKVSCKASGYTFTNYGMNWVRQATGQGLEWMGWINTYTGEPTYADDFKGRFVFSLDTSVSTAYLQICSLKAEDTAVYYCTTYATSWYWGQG
T2 sequence (VL, as listed by the source, chain 2 of 2): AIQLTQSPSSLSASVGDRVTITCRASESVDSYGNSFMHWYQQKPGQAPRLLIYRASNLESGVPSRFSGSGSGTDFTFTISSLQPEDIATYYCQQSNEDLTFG

BAP070-hum05 = target: T3, BAP070-hum05
T3 construct: Expressed as soluble IgG1 in CHO cells, tested as supernatant; The entries stop inside FR4
T3 sequence (VH, as listed by the source, chain 1 of 2): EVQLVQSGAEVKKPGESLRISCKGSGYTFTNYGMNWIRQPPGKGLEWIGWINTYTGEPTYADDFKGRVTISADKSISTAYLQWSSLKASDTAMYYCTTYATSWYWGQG

BAP070-hum06 = target: T4, BAP070-hum06
T4 construct: Expressed as soluble IgG1 in CHO cells, tested as supernatant; The entries stop inside FR4

B1: Human hepcidin peptide (hepcidin-25) (peptide)
peptide: DTHFPICIFCCGCCHRSKCGMCCKT
notes: Synthetic 25 aa peptide; also called hep-25; Hep-25
For B1, the “OD450 at 0.000 ng/well hepcidin” value (BAP070-hum01) was 0.408, the “OD450 at 0.137 ng/well hepcidin” value (BAP070-hum01) was 0.424 and the “OD450 at 0.412 ng/well hepcidin” value (BAP070-hum01) was 0.415. The “OD450 at 1.235 ng/well hepcidin” value (BAP070-hum01) was 0.311, the “OD450 at 3.704 ng/well hepcidin” value (BAP070-hum01) was 0.166 and the “OD450 at 11.111 ng/well hepcidin” value (BAP070-hum01) was 0.0849. The “OD450 at 33.333 ng/well hepcidin” value (BAP070-hum01) was 0.0336, the “OD450 at 100.000 ng/well hepcidin” value (BAP070-hum01) was 0.0144 and the “OD450 at 0.000 ng/well hepcidin” value (BAP070-hum03) was 2.13. For the same binder, the “OD450 at 0.137 ng/well hepcidin” value (BAP070-hum03) was 2.1, the “OD450 at 0.412 ng/well hepcidin” value (BAP070-hum03) was 1.96 and the “OD450 at 1.235 ng/well hepcidin” value (BAP070-hum03) was 1.48. For the same binder, the “OD450 at 3.704 ng/well hepcidin” value (BAP070-hum03) was 0.653, the “OD450 at 11.111 ng/well hepcidin” value (BAP070-hum03) was 0.281 and the “OD450 at 33.333 ng/well hepcidin” value (BAP070-hum03) was 0.0983. For the same binder, the “OD450 at 100.000 ng/well hepcidin” value (BAP070-hum03) was 0.0359, the “OD450 at 0.000 ng/well hepcidin” value (BAP070-hum05) was 0.972 and the “OD450 at 0.137 ng/well hepcidin” value (BAP070-hum05) was 0.917. For the same binder, the “OD450 at 0.412 ng/well hepcidin” value (BAP070-hum05) was 0.88, the “OD450 at 1.235 ng/well hepcidin” value (BAP070-hum05) was 0.625 and the “OD450 at 3.704 ng/well hepcidin” value (BAP070-hum05) was 0.273. The “OD450 at 11.111 ng/well hepcidin” value (BAP070-hum05) was 0.125, the “OD450 at 33.333 ng/well hepcidin” value (BAP070-hum05) was 0.0505 and the “OD450 at 100.000 ng/well hepcidin” value (BAP070-hum05) was 0.0195. The “OD450 at 0.000 ng/well hepcidin” value (BAP070-hum06) was 1.11, the “OD450 at 0.137 ng/well hepcidin” value (BAP070-hum06) was 1.1 and the “OD450 at 0.412 ng/well hepcidin” value (BAP070-hum06) was 0.961. The “OD450 at 1.235 ng/well hepcidin” value (BAP070-hum06) was 0.72, the “OD450 at 3.704 ng/well hepcidin” value (BAP070-hum06) was 0.369 and the “OD450 at 11.111 ng/well hepcidin” value (BAP070-hum06) was 0.154. The “OD450 at 33.333 ng/well hepcidin” value (BAP070-hum06) was 0.0599 and the “OD450 at 100.000 ng/well hepcidin” value (BAP070-hum06) was 0.0238.
